This passage reports response results from PMC9331606 (2022).

Test [1] addresses NanoLuciferase-tagged rat promyelocytic leukemia protein (rPML). Description: NanoBRET. The following applies: HEK293T cells transfected 24 h; 4 h incubation with Halo ligand; detection time 5 s at 618 nm and 448 nm; parent: est. 2.8; read off a plot.
In test [2] the target is NanoLuciferase-tagged human promyelocytic leukemia protein (hPML) (UniProt P29590). The experiment in a line: NanoBRET. The following applies: HEK293T cells transfected 24 h; 4 h incubation with Halo ligand; detection time 5 s at 618 nm and 448 nm; parent: est. 23; read off a plot. (In general: BRET reads energy transfer from a luciferase to a nearby fluorophore.)
Chain of NanoLuciferase-tagged human promyelocytic leukemia protein (hPML) (P29590 whole entry): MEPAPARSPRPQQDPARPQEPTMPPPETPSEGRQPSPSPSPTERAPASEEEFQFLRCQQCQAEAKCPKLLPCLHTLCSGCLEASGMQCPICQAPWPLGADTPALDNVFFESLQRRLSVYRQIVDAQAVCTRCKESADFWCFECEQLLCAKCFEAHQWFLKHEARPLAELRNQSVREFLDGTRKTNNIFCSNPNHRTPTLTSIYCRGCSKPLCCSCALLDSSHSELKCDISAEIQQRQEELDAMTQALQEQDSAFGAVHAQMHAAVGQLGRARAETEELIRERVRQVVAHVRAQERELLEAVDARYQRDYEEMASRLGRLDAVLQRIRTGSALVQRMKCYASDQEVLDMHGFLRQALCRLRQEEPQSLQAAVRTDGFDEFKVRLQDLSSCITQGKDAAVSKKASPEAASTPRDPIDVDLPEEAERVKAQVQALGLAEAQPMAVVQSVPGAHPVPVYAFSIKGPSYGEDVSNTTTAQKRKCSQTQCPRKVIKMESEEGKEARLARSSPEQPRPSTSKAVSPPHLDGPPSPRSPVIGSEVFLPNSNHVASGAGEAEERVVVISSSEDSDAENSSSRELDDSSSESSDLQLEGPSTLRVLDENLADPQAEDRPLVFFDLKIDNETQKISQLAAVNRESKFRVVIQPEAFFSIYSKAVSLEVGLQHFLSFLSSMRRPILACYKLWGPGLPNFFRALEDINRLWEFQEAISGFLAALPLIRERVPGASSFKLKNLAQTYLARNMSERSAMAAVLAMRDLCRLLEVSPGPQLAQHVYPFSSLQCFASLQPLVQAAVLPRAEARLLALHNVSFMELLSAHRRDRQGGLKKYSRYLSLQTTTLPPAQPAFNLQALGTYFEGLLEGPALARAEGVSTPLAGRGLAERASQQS

As to “Halo-tagged human cytomegalovirus immediate early 1 protein (hIE1) (from UniProt P13202) hIE1_rH4”, the response is 4 mBU in test [1] and 4.1 mBU in test [2]. On the same counts, the results for “Halo-tagged human cytomegalovirus immediate early 1 protein (hIE1) (from UniProt P13202) hIE1_rH1” are 5.5 mBU and 1.6 mBU.

“Halo-tagged human cytomegalovirus immediate early 1 protein (hIE1) (from UniProt P13202) hIE1_rH10/11”: the response was 6.5 mBU in test [1] and 2.6 mBU in test [2]. For “Halo-tagged human cytomegalovirus immediate early 1 protein (hIE1) (from UniProt P13202) hIE1_rH1/2”, the response in test [1] stood at 6.5 mBU; in test [2], 3.7 mBU. On the same counts, the results for “Halo-tagged human cytomegalovirus immediate early 1 protein (hIE1) (from UniProt P13202) hIE1_rH8” are 6.5 mBU and 2.2 mBU. “Halo-tagged human cytomegalovirus immediate early 1 protein (hIE1) (from UniProt P13202) L174P”: in test [1], the response amounted to 7 mBU. With “Halo-tagged human cytomegalovirus immediate early 1 protein (hIE1) (from UniProt P13202) cc172-176”, in test [2], the response turned out to be 24 mBU.
